Data as given in PMC2150586 (The Journal of Cell Biology, 1999).

Experiments:
[1] = biological target: T1, GSTCdc24–MBPFar1 complex, isolated by sequential purification on amylose and glutathione resin (S. cerevisiae, UniProt P11433;P21268); assay: pull-down
T1 sequence 1: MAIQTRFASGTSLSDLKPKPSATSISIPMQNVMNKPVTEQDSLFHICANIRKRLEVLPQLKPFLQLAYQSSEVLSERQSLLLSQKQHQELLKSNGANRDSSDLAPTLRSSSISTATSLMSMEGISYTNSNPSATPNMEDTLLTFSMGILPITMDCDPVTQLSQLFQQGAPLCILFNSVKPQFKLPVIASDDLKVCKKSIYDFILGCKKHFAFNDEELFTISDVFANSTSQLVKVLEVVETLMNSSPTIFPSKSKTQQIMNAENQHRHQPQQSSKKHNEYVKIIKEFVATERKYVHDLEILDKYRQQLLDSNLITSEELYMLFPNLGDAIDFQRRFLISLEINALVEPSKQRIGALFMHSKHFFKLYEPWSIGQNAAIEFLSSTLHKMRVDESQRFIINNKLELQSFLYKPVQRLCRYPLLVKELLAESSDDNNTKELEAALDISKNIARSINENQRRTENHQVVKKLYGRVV
T1 sequence 2: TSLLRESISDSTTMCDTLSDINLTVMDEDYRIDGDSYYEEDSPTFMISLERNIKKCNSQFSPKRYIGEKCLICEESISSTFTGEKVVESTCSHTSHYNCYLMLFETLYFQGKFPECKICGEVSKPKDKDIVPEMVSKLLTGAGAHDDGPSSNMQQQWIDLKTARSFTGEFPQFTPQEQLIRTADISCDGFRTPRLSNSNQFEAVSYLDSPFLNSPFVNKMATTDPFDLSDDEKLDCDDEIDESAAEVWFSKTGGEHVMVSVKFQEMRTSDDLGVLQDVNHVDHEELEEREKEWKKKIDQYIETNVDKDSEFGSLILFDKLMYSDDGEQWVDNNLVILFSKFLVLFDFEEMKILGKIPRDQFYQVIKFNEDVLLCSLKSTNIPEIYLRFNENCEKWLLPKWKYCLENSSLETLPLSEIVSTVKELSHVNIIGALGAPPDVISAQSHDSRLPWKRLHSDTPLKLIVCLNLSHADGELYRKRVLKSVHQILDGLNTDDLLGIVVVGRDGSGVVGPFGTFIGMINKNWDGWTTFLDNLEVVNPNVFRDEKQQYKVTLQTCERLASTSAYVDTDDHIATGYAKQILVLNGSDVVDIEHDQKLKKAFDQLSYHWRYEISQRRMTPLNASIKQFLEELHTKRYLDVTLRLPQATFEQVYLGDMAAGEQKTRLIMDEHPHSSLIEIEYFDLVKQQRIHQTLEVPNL

[2] = biological target: T2, GSTCdc24 (NH2-terminal 472 amino acids of Cdc24p fused to GST) (S. cerevisiae, UniProt P11433 1-472); assay: pull-down
T2 sequence: T1 sequence 1

B1: HASte4p purified from yeast (from HASte4-(TEV)-protein A, released with TEV protease) (natural protein)
chain: MAAHQMDSITYSNNVTQQYIQPQSLQDISAVEDEIQNKIEAARQESKQLHAQINKAKHKIQDASLFQMANKVTSLTKNKINLKPNIVLKGHNNKISDFRWSRDSKRILSASQDGFMLIWDSASGLKQNAIPLDSQWVLSCAISPSSTLVASAGLNNNCTIYRVSKENRVAQNVASIFKGHTCYISDIEFTDNAHILTASGDMTCALWDIPKAKRVREYSDHLGDVLALAIPEEPNSENSSNTFASCGSDGYTYIWDSRSPSAVQSFYVNDSDINALRFFKDGMSIVAGSDNGAINMYDLRSDCSIATFSLFRGYEERTPTPTYMAANMEYNTAQSPQTLKSTSSSYLDNQGVVSLDFSASGRLMYSCYTDIGCVVWDVLKGEIVGKLEGHGGRVTGVRSSPDGLAVCTGSWDSTMKIWSPGYQ
With B1 the “fold HASte4p bound against a similar amount of GSTCdc24 alone” value [1] was 2 fold and the “fold increase of HASte4p bound when MBPFar1 is added” value [2] was about 2 fold.
